Consider 1 substance from article PMC10945505.

The target in experiment [1] is F-FGF21FL (UniProt Q9NSA1). Put plainly: BLI; Octet Red 96, 30°C, 1000 rpm; F-FGF21 proteins at 50 nM captured on AHC (anti-hIgG Fc capture) biosensors, βKlotho in running buffer at 0.2743-200 nM; global fit, 1:1 binding model, monovalent KD.
The target in experiment [2] is F-FGF21∆N (UniProt Q9NSA1). The description is as above.

As to “Human βKlotho (from UniProt Q86Z14 1-996) (receptor)”, in experiment [1], the Kd was 10.1 nM, the koff was 0.00124 s⁻¹ and the kon came to 122000 M⁻¹ s⁻¹. In experiment [2], this substance yielded a dissociation constant (Kd) of 11.8 nM, a dissociation rate constant (koff) of 0.00195 s⁻¹ and a kon of 166000 M⁻¹ s⁻¹.

The term Kd denotes a measure of binding affinity in units of concentration. Higher therefore signals weaker binding. In general, koff refers to the rate constant with which the complex falls apart. Low values mean a long-lived complex, high ones a short-lived complex. The term kon denotes a measure of how fast the partners come together. Low values mean slower complex formation, high ones faster complex formation.
